# Measured values from patent US20210380675A1 (Kyowa Kirin, published 2021).
# Changes are numbered by the printed parent chain.
# T1: IL-36 receptor (heterodimer of IL-36R and IL-1RAcP) on human cells (human, UniProt Q9HB29 20-575; Q9NPH3 21-570)
# T1 sequence (looked up) 1: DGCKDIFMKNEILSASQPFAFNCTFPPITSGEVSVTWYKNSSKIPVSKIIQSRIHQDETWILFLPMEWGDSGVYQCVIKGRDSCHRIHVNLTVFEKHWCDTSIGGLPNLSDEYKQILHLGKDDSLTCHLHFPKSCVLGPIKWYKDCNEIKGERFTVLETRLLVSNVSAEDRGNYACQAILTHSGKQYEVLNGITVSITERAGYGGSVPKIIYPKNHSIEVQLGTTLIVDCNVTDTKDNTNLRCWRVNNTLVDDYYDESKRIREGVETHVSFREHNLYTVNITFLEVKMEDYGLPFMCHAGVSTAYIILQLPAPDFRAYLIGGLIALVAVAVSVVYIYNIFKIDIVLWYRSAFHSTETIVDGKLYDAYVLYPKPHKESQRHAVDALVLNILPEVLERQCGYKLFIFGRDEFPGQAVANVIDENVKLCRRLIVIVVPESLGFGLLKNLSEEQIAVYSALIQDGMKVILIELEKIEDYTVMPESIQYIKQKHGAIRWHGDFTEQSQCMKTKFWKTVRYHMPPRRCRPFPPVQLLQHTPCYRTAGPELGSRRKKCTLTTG
# T1 sequence (looked up) 2: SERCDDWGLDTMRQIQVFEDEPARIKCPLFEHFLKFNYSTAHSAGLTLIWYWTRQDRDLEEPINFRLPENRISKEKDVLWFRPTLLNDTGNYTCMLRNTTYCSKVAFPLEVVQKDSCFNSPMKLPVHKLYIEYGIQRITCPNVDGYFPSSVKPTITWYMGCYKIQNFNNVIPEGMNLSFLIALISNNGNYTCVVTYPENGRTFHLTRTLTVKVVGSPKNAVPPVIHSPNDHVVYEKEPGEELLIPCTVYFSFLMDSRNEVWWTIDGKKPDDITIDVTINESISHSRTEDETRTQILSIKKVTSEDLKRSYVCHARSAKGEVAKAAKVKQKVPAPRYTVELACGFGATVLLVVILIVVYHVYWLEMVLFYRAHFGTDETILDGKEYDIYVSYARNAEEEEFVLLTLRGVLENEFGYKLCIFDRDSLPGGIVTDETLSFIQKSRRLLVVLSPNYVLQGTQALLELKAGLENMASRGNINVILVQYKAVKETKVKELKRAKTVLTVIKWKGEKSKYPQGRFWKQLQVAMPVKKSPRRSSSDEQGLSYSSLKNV
# T2: human IL-36α(R12), truncated (human, UniProt Q9UHA7 6-158)
# T2 construct: Untagged after removal of the His-SUMO tag; also called hIL-36alpha
# T2 chain: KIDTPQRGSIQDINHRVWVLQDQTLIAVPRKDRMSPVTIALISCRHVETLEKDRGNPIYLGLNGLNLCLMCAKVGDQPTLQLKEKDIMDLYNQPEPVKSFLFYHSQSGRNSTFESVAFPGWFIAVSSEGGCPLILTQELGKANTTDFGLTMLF
# T3: cynomolgus IL-36α, truncated (cynomolgus macaque (Macaca fascicularis), UniProt Q9UHA7 14-158 (human entry), limits assumed)
# T3 construct: Untagged after removal of the His-SUMO tag; also called cynomolgus IL-36 alpha; cyIL-36alpha
# T3 chain: T2 chain with I2S, D3E, T4M, R7P, G8V, T24I, M34V, A40S, V74A
# T4: cynomolgus IL-36γ, truncated (cynomolgus macaque (Macaca fascicularis), UniProt Q9NZH8 18-167 (human entry), limits assumed)
# T4 construct: Untagged after removal of the His-SUMO tag; also called cynomolgus IL-36 gamma; cyIL-36gamma
# T4 chain: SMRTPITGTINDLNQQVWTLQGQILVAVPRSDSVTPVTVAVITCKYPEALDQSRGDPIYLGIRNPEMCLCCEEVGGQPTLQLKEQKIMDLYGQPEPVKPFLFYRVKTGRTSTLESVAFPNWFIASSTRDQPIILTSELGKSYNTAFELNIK
# T5: human IL-36α (R&D Systems cat#6995-IL-010/CF) (human, UniProt Q9UHA7 6-158)
# T5 sequence (looked up): T2 chain with R7Q
# B1: human IL-36Ra, truncated (ligand)
# chain: VLSGALCFRMKDSALKVLYLHNNQLLAGGLHAGKVIKGEEISVVPNRWLDASLSPVILGVQGGSQCLSCGVGQEPTLTLEPVNIMELYLGAKESKSFTFYRRDMGLTSSFESAAYPGWFLCTVPEADQPVRLTQLPENGGWNAPITDFYFQQCD
# B2: 144D464A LV9are HV10b (antibody, V domains shown)
# VH: QVQLVQSGAEVKKPGASVKVSCKASGFNIKDTYIHWVRQAPGQGLEWIGRIDPAIGTTRYDPKFQGRATITTDTSTSTVYLEFSSLRSEDTAVYYCARLHYFGNNFFFDYWGQGTLVTVSS
# VL: QAVVTQEPSLTVSPGGTVTLTCRSSSGAVTTSNYANWVQEKPGQLFAGLIGGTNDRAPGVPARFSGSLLGGKAALTLSGAQPEDEADYFCALWFSNHWVFGGGTKLTVL
# notes: Humanized
# B3: 144D464A LV7a HV10b (antibody, V domains shown)
# VH: B2 VH
# VL: B2 VL with E40Q, L45A, L77I
# notes: Humanized; also called humanized 144D464A antibody LV7a HV10b
# B4: human IL-36γ, truncated (ligand)
# chain: SMCKPITGTINDLNQQVWTLQGQNLVAVPRSDSVTPVTVAVITCKYPEALEQGRGDPIYLGIQNPEMCLYCEKVGEQPTLQLKEQKIMDLYGQPEPVKPFLFYRAKTGRTSTLESVAFPDWFIASSKRDQPIILTSELGKSYNTAFELNIND
# Key:
# [1] = molecular target: T1, IL-36 receptor (heterodimer of IL-36R …); assay: cell-based or functional assay
# [2] = molecular target: T1, IL-36 receptor (heterodimer of IL-36R …); assay: cell-based or functional assay; remark: listed apart in the source
# [3] = molecular target: T1, IL-36 receptor (heterodimer of IL-36R …); assay: cell-based or functional assay; remark: listed apart in the source
# [4] = molecular target: T1, IL-36 receptor (heterodimer of IL-36R …); assay: cell-based or functional assay; remark: listed apart in the source
# [5] = molecular target: T2, human IL-36α(R12), truncated; assay: SPR, Biacore, 1:1 Langmuir fit
# Protocol: (§1) The humanized antibodies obtained in Example 6 were tested for their binding to recombinant human or cynomolgus macaque IL36a and IL-36γ in Biacore assays. The association time was set to 60 seconds, and the final dissociation time was set to 600 seconds. Equilibrium dissociation constant KD (kd/ka) of exemplary antibodies was determined using a 1:1 Langmuir fit model (see Tables 17-18 below).
# human IL-36γ, truncated [6] = molecular target: B4; assay: SPR, Biacore, 1:1 Langmuir fit
# Protocol: as §1
# [7] = molecular target: T3, cynomolgus IL-36α, truncated; assay: SPR, Biacore, 1:1 Langmuir fit
# Protocol: as §1
# [8] = molecular target: T4, cynomolgus IL-36γ, truncated; assay: SPR, Biacore, 1:1 Langmuir fit
# Protocol: as §1
# [9] = molecular target: T2, human IL-36α(R12), truncated; assay: SPR, Biacore, 1:1 Langmuir fit; heads of c3 and c4 printed swapped
# Protocol: as §1
# human IL-36γ, truncated [10] = molecular target: B4; assay: as above
# Protocol: as §1
# [11] = molecular target: T3, cynomolgus IL-36α, truncated; assay: as above
# Protocol: as §1
# [12] = molecular target: T4, cynomolgus IL-36γ, truncated; assay: as above
# Protocol: as §1
# human IL-36γ, truncated [13] = molecular target: B4; assay: cell-based or functional assay
# [14] = molecular target: T5, human IL-36α (R&D Systems …); assay: cell-based or functional assay
# [15] = molecular target: T1, IL-36 receptor (heterodimer of IL-36R …); assay: cell-based or functional assay; remark: listed apart in the source
Binder,Kd [5] [nM],"Kd (human IL-36γ, truncated [6]) [nM]",Kd [7] [nM],Kd [8] [nM],koff [9] [s⁻¹],kon [9] [M⁻¹ s⁻¹],"koff (human IL-36γ, truncated [10]) [s⁻¹]","kon (human IL-36γ, truncated [10]) [M⁻¹ s⁻¹]",koff [11] [s⁻¹],kon [11] [M⁻¹ s⁻¹],koff [12] [s⁻¹],kon [12] [M⁻¹ s⁻¹],"IC50 of IL-8 secretion (AlphaLISA), HaCaT, 10 nM human IL-36γ (human IL-36γ, truncated [13]) [nM]","IC50 of IL-8 secretion (AlphaLISA), HaCaT, 10 nM human IL-36α [14] [nM]",other results
B1,,,,,,,,,,,,,,,"IC50 of IL-8 secretion, primary human monocytes, 6 nM human IL-36γ, FIG. 5C [1]: 38 nM; IC50 of IL-8 secretion, primary human monocytes, 20 nM human IL-36α, FIG. 5A [1]: 46.5 nM; IC50 of IL-8 secretion, primary human monocytes, 40 nM human IL-36α, FIG. 5B [1]: 69.1 nM; IC50 of IL-8 secretion, primary human monocytes, 50 nM human IL-36γ, FIG. 5D [1]: 76.3 nM; IC50 of IL-8 secretion, HaCaT, 10 nM cynomolgus IL-36γ, FIG. 2C [2]: 174 nM; IC50 of IL-8 secretion, HaCaT, 10 nM cynomolgus IL-36γ, FIG. 2D [2]: 235 nM; IC50 of IL-8 secretion, HaCaT, 10 nM human IL-36γ, FIG. 1D [2]: 45.1 nM; IC50 of IL-8 secretion, HaCaT, 10 nM human IL-36γ, FIG. 1E [2]: 86.5 nM; IC50 of IL-8 secretion, HaCaT, 10 nM human IL-36γ, FIG. 1F [2]: 129 nM; IC50 of IL-8 secretion, primary human keratinocytes, 6.25 nM human IL-36α, FIG. 4A [3]: 11.2 nM; IC50 of IL-8 secretion, primary human keratinocytes, 8 nM human IL-36α, FIG. 4B [3]: 34.6 nM; IC50 of IL-8 secretion, primary human keratinocytes, 8.4 nM human IL-36γ, FIG. 4C [3]: 109 nM; IC50 of IL-8 secretion, primary human keratinocytes, 8.4 nM human IL-36γ, FIG. 4D [3]: 47.9 nM; IC50 of IL-8 secretion, HaCaT, 10 nM cynomolgus IL-36α, FIG. 2A [4]: 21.8 nM; IC50 of IL-8 secretion, HaCaT, 10 nM cynomolgus IL-36α, FIG. 2B [4]: 20.8 nM; IC50 of IL-8 secretion, HaCaT, 10 nM human IL-36α, FIG. 1A [4]: 39.9 nM; IC50 of IL-8 secretion, HaCaT, 10 nM human IL-36α, FIG. 1B [4]: 46.6 nM; IC50 of IL-8 secretion, HaCaT, 10 nM human IL-36α, FIG. 1C [4]: 90.6 nM"
B2,2.1,1.3,1.19,1.13,0.000445,212000,0.000436,336000,0.000422,354000,0.000493,434000,12.5,4.51,
B3,2.09,1.31,1.25,1.18,0.000456,219000,0.000451,343000,0.000451,362000,0.000523,443000,7.83,3.9,
B4,,,,,,,,,,,,,,,EC50 (read off the curve) [15]: ~1 nM
